Values belong to the molecule of their own block, whether it stands above or below them.
Experiments:
Assay in all cases: SEC; Superdex 200 increase column, 40 mM potassium phosphate, 300 mM NaCl, pH 6.5, 1 mL/min, detection at 220 nm; drug products reconstituted in water for injection
[1] = target: L-Aspase (E. coli L-asparaginase) (E. coli) (UniProt P00805)
[2] = target: T1, Spectrila (recombinant E. coli L-asparaginase type II) (E. coli), P00805; details: remark: other sources report otherwise
T1 chain: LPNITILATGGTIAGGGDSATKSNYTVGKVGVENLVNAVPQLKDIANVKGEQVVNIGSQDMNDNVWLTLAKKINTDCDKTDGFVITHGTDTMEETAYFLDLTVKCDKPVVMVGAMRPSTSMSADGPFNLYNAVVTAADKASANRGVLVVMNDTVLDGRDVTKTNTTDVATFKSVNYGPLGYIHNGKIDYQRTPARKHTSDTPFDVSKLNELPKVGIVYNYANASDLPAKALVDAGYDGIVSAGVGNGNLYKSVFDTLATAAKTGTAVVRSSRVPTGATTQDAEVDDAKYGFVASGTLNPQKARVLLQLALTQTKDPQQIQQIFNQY

[3] = target: T2, Celginase (E. coli L-asparaginase) (E. coli), P00805; details: remark: other sources report otherwise
T2 chain: T1 chain

[4] = target: T3, Bionase (E. coli L-asparaginase) (E. coli), P00805; details: remark: other sources report otherwise
T3 chain: T1 chain

stoichiometry N [1]: 4
Molecule: L-Aspase (E. coli L-asparaginase) (from UniProt P00805 23-348) (enzyme)

stoichiometry N [4]: 4
B3: Bionase (E. coli L-asparaginase), P00805 23-348 (enzyme)
chain: T1 chain

Continued, molecule first:

B1: Spectrila (recombinant E. coli L-asparaginase type II), P00805 23-348 (enzyme)
chain: T1 chain
stoichiometry N [2]: 4

B2: Celginase (E. coli L-asparaginase), P00805 23-348 (enzyme)
chain: T1 chain
stoichiometry N [3]: 4
